# Assay results published in publication PMC11965310.
# Target: Recombinant Human LRP1 cluster III protein, Fc Tag (human) (UniProt Q07954)
# Assay: SPR; LRP1 cluster III-Fc captured on a Protein G chip (1800 RU); tau1N4R as analyte 0.012-1 μM, single-cycle kinetics; HBS-N with 0.005% P20 and 1 mM CaCl2; 1:1 Langmuir model
# Recombinant Human LRP1 cluster III protein, Fc Tag (human), sequence (Q07954 2522-2940): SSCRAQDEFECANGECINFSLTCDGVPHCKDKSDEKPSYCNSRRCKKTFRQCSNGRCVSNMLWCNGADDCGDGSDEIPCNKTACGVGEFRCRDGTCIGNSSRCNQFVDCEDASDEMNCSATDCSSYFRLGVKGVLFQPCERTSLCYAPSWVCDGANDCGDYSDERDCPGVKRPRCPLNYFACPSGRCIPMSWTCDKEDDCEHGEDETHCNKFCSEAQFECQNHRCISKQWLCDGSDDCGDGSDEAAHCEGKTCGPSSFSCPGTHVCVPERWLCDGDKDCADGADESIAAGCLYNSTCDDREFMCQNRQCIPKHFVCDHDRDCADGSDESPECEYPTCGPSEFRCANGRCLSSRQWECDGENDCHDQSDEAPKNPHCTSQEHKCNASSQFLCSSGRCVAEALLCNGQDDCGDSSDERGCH
substance,measurement,value
tau1N4R (from UniProt P10636-6 1-383) (natural protein),Kd,91 nM
